Reference: US20070014817

How the values were obtained:
[1] = system: Plasmodium berghei Apical Membrane Antigen 1 (PbAMA1)
[2] = system: Plasmodium berghei Merozoite Surface Protein 1, 42 kDa form (PbMSP1-42)

Which ratio of HSP70-corrected PbAMA1-CT15 maturation product, SPA-TmDX1 (PbSUB2 over-expressing) versus WT-TmDX1 merozoite extracts, Western blot, 6.5 x 10^7 parasites (fold (ratio of corrected amounts)) [1] does the source give for “Plasmodium berghei subtilisin-like protease SUB2 (PbSUB2), TrimycDuoXpress (TmDX) epitope-tagged, as expressed in WT-TmDX1 and SPA-TmDX1 recombinant parasites” here?
The ratio of HSP70-corrected PbAMA1-CT15 maturation product, SPA-TmDX1 (PbSUB2 over-expressing) versus WT-TmDX1 merozoite extracts, Western blot, 6.5 x 10^7 parasites (fold (ratio of corrected amounts)) was 9.7.

What about the ratio of HSP70-corrected PbMSP1-19 maturation product, SPA-TmDX1 (PbSUB2 over-expressing) versus WT-TmDX1 merozoite extracts, Western blot, 1.3 x 10^6 parasites (fold (ratio of corrected amounts)) [2] of the same substance?
Its ratio of HSP70-corrected PbMSP1-19 maturation product, SPA-TmDX1 (PbSUB2 over-expressing) versus WT-TmDX1 merozoite extracts, Western blot, 1.3 x 10^6 parasites (fold (ratio of corrected amounts)) is 2.9.

And the ratio of HSP70-corrected PbMSP1-19 maturation product, SPA-TmDX1 (PbSUB2 over-expressing) versus WT-TmDX1 merozoite extracts, Western blot, 6.5 x 10^6 parasites (fold (ratio of corrected amounts)) [2]?
The ratio of HSP70-corrected PbMSP1-19 maturation product, SPA-TmDX1 (PbSUB2 over-expressing) versus WT-TmDX1 merozoite extracts, Western blot, 6.5 x 10^6 parasites (fold (ratio of corrected amounts)) was 2.5.

What about the ratio of HSP70-corrected PbMSP1-19 maturation product, SPA-TmDX1 (PbSUB2 over-expressing) versus WT-TmDX1 merozoite extracts, Western blot, 13 x 10^6 parasites (fold (ratio of corrected amounts)) [2] of the same substance?
Its ratio of HSP70-corrected PbMSP1-19 maturation product, SPA-TmDX1 (PbSUB2 over-expressing) versus WT-TmDX1 merozoite extracts, Western blot, 13 x 10^6 parasites (fold (ratio of corrected amounts)) is 2.1.
